# Test results: US20250049953A1, “TREATMENT AND METHOD FOR INHIBITING LATE NA CURRENT” (THE TRUSTEES OF COLUMBIA UNIVERSITY IN THE CITY OF NEW YORK, priority 2022, published 2025)
# What was measured:
# NaV1.5 IQ/AA mutant = target: T1, NaV1.5 IQ/AA mutant (Homo sapiens, UniProt Q14524, I1908A/Q1909A); test: Multichannel recordings of late Na current, NaV1.5 IQ/AA mutant in HEK293 cells; type: cell-based
# T1 construct: expressed in transfected cells; host or cells: HEK293 (ATCC CRL1573)
# Source text: The human NaV1.5 channel corresponds to clone M77235.1 (GenBank) and is subcloned into pGW 1 vector with HindIII and SaII. To facilitate construction of channelopathic mutations in the channel carboxy-terminus, we introduced silent mutations into NaV1.5 to introduce an NruI cutting site near the channel carboxy-terminus (5329-gtggccacg-5337 into 5329-gtCgcGacg-5337). Subsequently, we used overlap-extension PCR and ligated the PCR product into NaV1.5/pGW1 using NruI and XbaI restriction sites (mutations: E1784K, S1904L, IQ/AA, and Q1909R). For generating the ΔKPQ and IFM/IQM mutations, we used overlap-extension PCR and ligated in NaV1.5/pGW1 following restriction digest using KpnI and XbaI site. For generation of NaV1.5 truncations, we PCR amplified relevant segments using a forward primer upstream of the KpnI site and a reverse primer that truncated at the appropriate location (Δ1810 and Δ1885) and included an XbaI site and ligated into NaV1.5/pW1 vector. For LILA/WICW mutations, we used overlap extension and used restriction site AgeI and NheI for subsequent ligation. All segments subjected to PCR amplification were verified by sequencing. For generating human FHF2 splice-variants, we synthesized gene fragments and ligated into pcDNA3 using BamHI/EcoRI restriction sites. Human FHF1A and FHF1B were subcloned into ECFP-N3 vector, FHF2 splice variants and FHF3 were subcloned into pcDNA3. Truncations of the FHF1A amino-terminus (NT) were generated as fusion proteins with Venus fluorescent protein in the carboxy-terminus by encoding the relevant segments as noted in FIG. 12A in the forward PCR primer and the fluorophore as the template. Following PCR amplification, each fragment was ligated into pcDNA3 following restriction digest using NheI and XhoI enzymes. Plasmid encoding PKA catalytic subunit was constructed from pDONR222-PRKACA as described previously.
# HEK293 cells (ATCC CRL1573) were cultured on glass coverslips in 60-mm dishes and transfected using the Ca^2+-phosphate method as previously described. For electrophysiology experiments, we co-transfected 4-8 μg of cDNA encoding the desired channel variant with 4 μg of YFP, and 1 μg of simian virus 40 T-antigen. For experiments evaluating effect of FHF, we transfected the relevant FHF variant at 1:1 ratio as the α-subunit. For experiments considering competition between FHF1/2 isoforms, we co-transfected FHF1B and FHF2S variants at specified ratios (ranging from 1:1 to 1:10). The culture media was replaced following 4 h of transfection. Electrophysiology recordings were then performed at room temperature 1-2 days following transfection.
# Multichannel records were obtained in the on-cell configuration with either HEK293 cells or in aMVM as in our previous study. The pipette contained (in mM): 140 NaCl; 10 HEPES; 0.5 CaCl2; at 300 mOsm, adjusted with tetraethylammonium methanesulfonate; and pH 7.4 adjusted with tetraethylammonium hydroxide. To zero membrane potential, the bath contained (in mM): 132 K^+-glutamate; 5 KCl; 5 NaCl; 3 MgCl; 2 EGTA; 10 glucose; 20HEPES; at 300 mOsm adjusted with glucose; and pH 7.4 adjusted with NaOH. Data were acquired at room temperature using the integrating mode of an Axopatch 200A amplifier (Axon Instruments, Molecular Devices). Patch pipettes (3-10 MΩ) were pulled from ultra-thick-walled borosilicate glass (BF200-116-10; Sutter Instruments) using horizontal puller (P-97, Sutter Instruments), fire polished with a microforge (Narishige), and coated with Sylgard™ brand silicone elastomer (Dow Corning). Elementary currents were low-pass filtered at 2 kHz with a four-pole Bessel filter and digitized at 200 kHz with an ITC-18 unit (Instrutech), controlled by custom MATLAB software (Mathworks). For each pulse, we obtained P/8 leak pulses. Leak subtraction was performed using an automated algorithm which fit the kinetics of the leak current or the capacitive transient with convex optimization with L1 regularization. […]
# [1] = target: T2, NaV1.5 S1904L mutant channel (Homo sapiens, UniProt Q14524, S1904L); test: Multichannel recordings of late Na current, NaV1.5 S1904L; type: cell-based; conditions: co-expression
# T2 construct: expressed in transfected cells; host or cells: HEK293 (ATCC CRL1573)
# Method: HEK293 cells (ATCC CRL1573) were cultured on glass coverslips in 60-mm dishes and transfected using the Ca^2+-phosphate method as previously described. For electrophysiology experiments, we co-transfected 4-8 μg of cDNA encoding the desired channel variant with 4 μg of YFP, and 1 μg of simian virus 40 T-antigen. […] The culture media was replaced following 4 h of transfection. Electrophysiology recordings were then performed at room temperature 1-2 days following transfection.
substance,measurement,setting,value
"FixR: minimal 39-amino-acid FHF1A amino-terminal effector domain, MAAAIASSLIRQKRQARESNSDRVSASKRRSSPSKDGRS (SEQ ID NO: 4), expressed as peptide","reduction in INa,L","NaV1.5 IQ/AA mutant; FixR co-expressed, FIG. 5C",10- to 15 fold
same,"change in INa,L",NaV1.5 IQ/AA mutant; co-expression with NaV1.5 IQ/AA in HEK293 cells,strong inhibition
same,"change in INa,L",[1],"inhibits INa,L"
